Test results from the supplement of paper PMC9732359.
± gives the uncertainty stated by the source.

Experiment: protein stability index of a GFP-peptide fusion (yeast GPS) (PSI 1-4); higher = more stable; sorted into four equal gates, so the index is relative within each strain
Conditions: pdr5∆
Method in brief: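 For each peptide, the protein stability index sums the read frequency in every gate after multiplying it by the gate number. Read frequencies came from plasmids that were PCR-amplified from each gate and Illumina-sequenced, with reads assigned to strains by barcodes. The gates were four equal bins of GFP/Cherry fluorescence ratio applied to mid-log yeast in leucine-free medium carrying a pooled library of tiled 17-residue yeast protein peptides fused downstream of GFP on a Cherry-expressing plasmid.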

In order of rising protein stability index:
1. SAIIENAFRKEELLLKD [GAL11]  1.14 ± 0.16
2. RISEKSVRKFLEIALFK [RPO31]  1.15 ± 0.13
3. RIPFSERKLKFSNRFLP [FAS1]  1.17 ± 0.077
4. RLGGDDLRIRIKLDIVV [SNF5]  1.33 ± 0.097
5. RNQILVSITDAPKIHIL [YMR129W/POM152]  1.35 ± 0.036
6. RYVNLLGVTYSSPTLAT [PRE4]  1.35 ± 0.13
7. RTWYESFCGFLLYYIPS [YJR042W/NUP85]  1.43 ± 0.047
8. RGTIPLLERYIGNLITR [PRP8]  1.55 ± 0.045
9. RPFDSFGKLLQAYQFLN [ITC1]  1.58 ± 0.058
10. RLNTVTRVHQLMLEDAV [MCD1]  1.62 ± 0.06
11. RKVSGPRALQPSQFGML [RET1]  1.67 ± 0.059
12. RKAYFTAPSSERRVLLS [RPL26B]  1.7 ± 0.051
13. RKLINYTKKHLSSHSST [RPN4]  1.71 ± 0.049
14. RFTKFSDTLKEFKIEQN [YDL116W/NUP84]  1.74 ± 0.081
15. RLRQFNLQPISTPENVP [SMC4]  1.76 ± 0.067
16. RILAMCVKNHGQSSSIQ [YCS4]  1.79 ± 0.051
17. RRADVKTATVKINKKLN [RPL38]  1.84 ± 0.041
18. RGYTCQFVDMVLPNTAL [FAS1]  1.88 ± 0.048
19. RINTLPQVQLPVRALIV [ECM29]  1.93 ± 0.26
20. RRLDALVEKVYARFKND [ITC1]  1.93 ± 0.083
21. SAIRQVFERFKTKILEV [IRR1]  2.03 ± 0.06
22. RKAYFTAPSSQRRVLLS [RPL26A]  2.14 ± 0.056
23. RKQIQLLKKIIFEKELM [SRB4]  2.14 ± 0.047
24. RNTMMIQCQIDKLYIHF [RGR1]  2.15 ± 0.061
25. RKVRTKKWKKYWQYKAG [SWP82]  2.17 ± 0.12
26. RIIGLSATLPNYEDVGR [BRR2]  2.18 ± 0.039
27. RSWTLTSEMKVLSIPPA [YGL100W/SEH1]  2.18 ± 0.069
28. RLQGIKLLDNIQEYQLC [COR1]  2.24 ± 0.092
29. RSEDPAGLGKTNELWAR [YGR119C/NUP57]  2.24 ± 0.077
30. RLTAKRLIEHDPVEGNL [SRP14]  2.29 ± 0.052
31. RPSFQNNRISNANEISA [SWP82]  2.29 ± 0.047
32. SAGRIESNNPSHDASRS [SIR4]  2.3 ± 0.11
33. RLASEPGIISITSLQDS [YMR129W/POM152]  2.34 ± 0.077
34. RITNSFYSTNSQYFKFK [RPN9]  2.38 ± 0.076
35. RKLMEMENILQRCKSNA [YIL149C/MLP2]  2.39 ± 0.086
36. RLIDSMKQYSYLMDSKN [RRI1]  2.41 ± 0.14
37. RQQYYSGVQVGGVGSMG [SNF6]  2.44 ± 0.11
38. RRIPKRMRNRALREMRK [POP1]  2.45 ± 0.058
39. SAPIYVDIEYTRGRNII [RET1]  2.51 ± 0.12
40. SAEEQLRKIDMLQKKLV [SRB7]  2.58 ± 0.065
41. RLQAANSMEYTGKITKM [CDC53]  2.62 ± 0.14
42. RVNNPNVSLIKIEGVAT [RPL33A]  2.62 ± 0.062
43. SANERLFGNRPSMMAPL [YML031W/NDC1]  2.63 ± 0.13
44. RYLAVTLQDIGFYQIKK [YMR129W/POM152]  2.65 ± 0.043
45. RKALPKEPKKLLPNSKN [DSN1]  2.69 ± 0.071
46. RSQDQENPAFLPGTNNN [SEC65]  2.75 ± 0.079
47. RYLTLLSNEFTATNSKG [ECM29]  2.76 ± 0.064
48. RFMKGRRSKQLINLAKT [RPC82]  2.78 ± 0.11
49. RRFYKNWYKSKKKAFTK [RPL3]  2.8 ± 0.11
50. RRRDGVFLYFEDNAGVI [RPL23A]  2.83 ± 0.069
51. RTKSQVIEEDYDDEQNT [IRR1]  2.83 ± 0.15
52. RNILHNTVPQVTNFNST [SRB5]  2.87 ± 0.05
53. RKILESSNIVNENDSQA [YIL149C/MLP2]  2.88 ± 0.14
54. RRIIQNAQQTFHIDHTK [RPO21]  2.89 ± 0.061
55. RLELAGQLISLLFEDLF [RET1]  2.9 ± 0.12
56. SAGLFGSKPAGGTSLFG [YGL172W/NUP49]  2.9 ± 0.1
57. RRRDFGAPANKRPRRGL [SMD1]  2.93 ± 0.084
58. RVKDIHLRKLLDGELDF [RET1]  2.93 ± 0.062
59. RKRKCGHTNQLRPKKKL [RPL40A]  2.95 ± 0.032
60. RKFKSRRCDDMLYYIQN [POP4]  2.98 ± 0.088
61. RRFKNGFQTGSASKASA [RPL37A]  2.98 ± 0.056
62. RSWNEPSKSQTNFKEEI [YML103C/NUP188]  2.98 ± 0.13
63. SAFACKTDEVIILGTNL [BRR2]  3 ± 0.043
64. RRYDRKQSGFGGQTKPV [RPL42A]  3.03 ± 0.066
65. RYNRAVPDSKIRIYDLG [RPL10]  3.04 ± 0.15
66. SAASKKKKNKNKGKKKR [SRP21]  3.04 ± 0.1
67. RLFIKPGQKMSLFSHRK [BRN1]  3.06 ± 0.11
68. RRTNTPIGRDGKLAKPR [RPB2]  3.06 ± 0.078
69. SADCELLGIDATVPSGR [RPO31]  3.06 ± 0.18
70. RNKSAANNDINSLLSNF [YDL088C/ASM4]  3.07 ± 0.095
71. RMLSFEDISKATHLPKD [RPN9]  3.08 ± 0.08
72. RQFVSNVRSVIRSSRSR [RPP1]  3.08 ± 0.071
73. RNVLSASLDGTIRLWEC [RPN14]  3.09 ± 0.073
74. RSLATAVATPKAEVTQL [COR1]  3.09 ± 0.13
75. RKLEISSRFKHRQEIFK [GAL11]  3.1 ± 0.061
76. RKCCNHPYLFEGAEPGP [ISW2]  3.11 ± 0.067
77. RKHRNAQFAGRASIEYY [DIS3]  3.11 ± 0.072
78. RLHYYPKDPSNVETYEQ [BRR2]  3.11 ± 0.23
79. RVVTVDGKLIDISGTMS [SMC4]  3.11 ± 0.19
80. RILKNKAEYLKNCPITQ [RPC40]  3.12 ± 0.048
81. SAEDQLYAITFRKGLGN [QCR2]  3.14 ± 0.16
82. RGNTKIHSMNENPTPEK [SIR3]  3.15 ± 0.11
83. RTSATREDTPLSQNEST [ISW2]  3.16 ± 0.064
84. RQLTSLGSKKELGISLE [SNU114]  3.17 ± 0.079
85. RRRLLGPAAAKPMAFSN [MTR3]  3.17 ± 0.055
86. RVGVKLKFNSTEYRGTL [SMX3]  3.17 ± 0.07
87. RMLEEAIDHLKAELEKQ [YIL149C/MLP2]  3.21 ± 0.063
88. RPDLIKEDHPLEFYKDK [SIR3]  3.23 ± 0.055
89. SAIDEEIEELIDSINGP [SMC3]  3.24 ± 0.17
90. RKRPVPKGATYGKPTNQ [RPL15A]  3.29 ± 0.19
91. RNRDIALFQPPNFDWDL [ROX3]  3.33 ± 0.12
92. RSRNGGATKIVREHYLR [DIS3]  3.36 ± 0.083
93. RVKVHFDQAGKKVSRRN [RPL13A]  3.37 ± 0.1
94. RLEFDQDRDRFFLRDTL [SNF5]  3.38 ± 0.065
95. RQNRRPELGDKFSSRHG [RET1]  3.4 ± 0.3
96. RNNVANKQPRNESFNRR [YAR002W/NUP60]  3.41 ± 0.18
97. RHMVDDKIHARARGPMQ [RPB2]  3.48 ± 0.13
98. RKGGPATAEKLPNIYPS [RPT2]  3.54 ± 0.25
99. RHKNKHIQGFPTLGERL [DSN1]  3.64 ± 0.13
100. RLAPLIKEENDMENMAD [ARP7]  3.65 ± 0.15
